Target: StnCBP-HA-NLuc
Experiment: SLC assay (split-luciferase complementation in leaves)
Details: luminescence intensity/50 mm2 leaf area; n = 3; parent: est. 3500; read off a plot

**Q.** CLuc-GFP-HC-Pro^O V346I was tested. Which response did it give?
**A.** 3300

— publication PMC9531334
